# Values of other authors in publication PMC6126569.
# Several values for one entry are separate records, joined by “and”; a condition that tells them apart may be missing. Identical values can stand only once.
# Target: Bac7 (Bos taurus) (UniProt P19661)
# Experiment: SRCD
# Sequence of SbmA (P0AFY6 whole entry): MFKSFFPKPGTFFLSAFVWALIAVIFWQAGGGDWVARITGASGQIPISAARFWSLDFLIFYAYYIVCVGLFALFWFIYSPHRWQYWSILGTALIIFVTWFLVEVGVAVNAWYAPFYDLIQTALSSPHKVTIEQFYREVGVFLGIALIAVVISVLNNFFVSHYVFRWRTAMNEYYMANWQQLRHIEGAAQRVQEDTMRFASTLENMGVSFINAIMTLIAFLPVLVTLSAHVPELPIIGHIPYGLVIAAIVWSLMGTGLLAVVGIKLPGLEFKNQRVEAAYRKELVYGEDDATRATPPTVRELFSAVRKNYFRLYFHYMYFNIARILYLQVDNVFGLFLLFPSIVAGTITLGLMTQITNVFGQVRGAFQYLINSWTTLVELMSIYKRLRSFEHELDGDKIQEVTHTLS
# Sequence of Bac7 (Bos taurus) (P19661 131-189): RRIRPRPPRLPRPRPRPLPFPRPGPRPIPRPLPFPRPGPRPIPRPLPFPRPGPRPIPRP
substance,measurement,value
SbmA (from UniProt P0AFY6),Kd,260 nM and 280 nM
